{"source": "patent US20060073152A1", "about": "(Genentech, published 2006)", "binders": {"B1": {"name": "RA (peptide)", "peptide": "RNEDPCVVLLEMGLECWEGV", "modifications": "not fully specified (bridges); cysteine pairing not given here; also: phage-displayed", "notes": "on phage"}, "B2": {"name": "RD (peptide)", "peptide": "DTCVDLVRLGLECWG", "notes": "on phage; also called Library RD"}, "B3": {"name": "RC (peptide)", "peptide": "DLCLRDWGCLW", "notes": "on phage; also called Library RC"}, "B4": {"name": "RE (peptide)", "peptide": "CGCVDVSDWDCWSECLWSHGA", "notes": "on phage"}, "B5": {"name": "HC (peptide)", "peptide": "EMCYFPGICWM", "notes": "on phage; also called Library HC"}, "B6": {"name": "HA (peptide)", "peptide": "EVRSFCTDWPAEKSCKPLRG", "notes": "on phage; also called Library HA"}, "B7": {"name": "HB (peptide)", "peptide": "RAPESFVCYWETICFERSEQ", "notes": "on phage; also called Library HB"}, "B8": {"name": "BA (peptide)", "peptide": "GENWCDSTLMAYDLCGQVNM", "notes": "on phage; also called Library BA"}, "B9": {"name": "BB (peptide)", "peptide": "MDELAFYCGIWECLMHQEQK", "notes": "on phage"}, "B10": {"name": "BC (peptide)", "peptide": "DLCDVDFCWF", "notes": "on phage"}, "B11": {"name": "BD (peptide)", "peptide": "KSCSELHWLLVEECLF", "modifications": "not fully specified (bridges); cysteine pairing not given here", "notes": "on phage"}, "B12": {"name": "SA04 (peptide)", "peptide": "DICLPRWGCLW-NH2", "modifications": "not fully specified (bridges); cysteine pairing not given here", "notes": "free peptide"}, "B13": {"name": "SA05 (peptide)", "peptide": "MEDICLPRWGCLWED-NH2", "modifications": "not fully specified (bridges); cysteine pairing not given here", "notes": "free peptide"}, "B14": {"name": "SA06 (peptide)", "peptide": "QRLMEDICLPRWGCLWEDDF-NH2", "modifications": "disulfide 8-14 (inferred)"}, "B15": {"name": "SA07 (peptide)", "peptide": "QGLIGDICLPRWGCLWGDSV-NH2", "modifications": "not fully specified (bridges); cysteine pairing not given here", "notes": "free peptide"}, "B16": {"name": "SA09 (peptide)", "peptide": "Ac-EDICLPRWGCLWEDD-NH2", "modifications": "not fully specified (bridges); cysteine pairing not given here", "notes": "free peptide"}, "B17": {"name": "SA10 (peptide)", "peptide": "Ac-RLMEDICLPRWGCLWEDD-NH2", "modifications": "cysteine pairing not given here", "notes": "free peptide"}, "B18": {"name": "SA11 (peptide)", "peptide": "Ac-MEDICLPRWGCLWEDD-NH2", "modifications": "not fully specified (bridges); cysteine pairing not given here", "notes": "free peptide"}, "B19": {"name": "SA12 (peptide)", "peptide": "Ac-MEDICLPRWGCLWED-NH2", "modifications": "not fully specified (bridges); cysteine pairing not given here", "notes": "free peptide"}, "B20": {"name": "RB-B12 (peptide)", "peptide": "QGLIGDICLPRWGCLWGDSV", "notes": "on phage; also called RB-R8"}, "B21": {"name": "RB-B16 (peptide)", "peptide": "HRLVEDICLPRWGCLWGNDF", "modifications": "not fully specified (bridges); cysteine pairing not given here; also: phage-displayed", "notes": "on phage"}, "B22": {"name": "RB-B9 (peptide)", "peptide": "QMHMMDICLPKWGCLWGDTS", "modifications": "not fully specified (bridges); cysteine pairing not given here", "notes": "on phage"}, "B23": {"name": "RB-B14 (peptide)", "peptide": "LRIFEDICLPKWGCLWGEGF", "notes": "on phage"}, "B24": {"name": "RB-B3 (peptide)", "peptide": "QSYMEDICLPRWGCLSDDAS", "modifications": "not fully specified (bridges); cysteine pairing not given here; also: phage-displayed", "notes": "on phage"}, "B25": {"name": "RB-B10 (peptide)", "peptide": "QGDFWDICLPRWGCLSGEGY", "notes": "on phage"}, "B26": {"name": "RB-B1 (peptide)", "peptide": "RWQTEDVCLPKWGCLFGDGV", "modifications": "not fully specified (bridges); cysteine pairing not given here; also: phage-displayed", "notes": "on phage"}, "B27": {"name": "RB-R16 (peptide)", "peptide": "LIFMEDVCLPQWGCLWEDGV", "notes": "on phage"}, "B28": {"name": "HC-R10 (peptide)", "peptide": "QRDMGDICLPRWGCLWEDGV", "modifications": "not fully specified (bridges); cysteine pairing not given here; also: phage-displayed", "notes": "on phage"}, "B29": {"name": "BA-B44 (peptide)", "peptide": "GEDWCDSTLLAFDLCGEGAR", "notes": "on phage"}, "B30": {"name": "BA-B37 (peptide)", "peptide": "GENWCDWVLLAYDLCGEDNT", "notes": "on phage"}, "B31": {"name": "BA-B39 (peptide)", "peptide": "MELWCDSTLMAYDLCGDFNM", "notes": "on phage"}, "B32": {"name": "RB-H1 (peptide)", "peptide": "QRHPEDICLPRWGCLWGDDD", "notes": "on phage"}, "B33": {"name": "RB-H6 (peptide)", "peptide": "NRQMEDICLPQWGCLWGDDF", "notes": "on phage"}, "B34": {"name": "RB-B8 (peptide)", "peptide": "HSQMEDICLPRWGCLWGDEL", "modifications": "not fully specified (bridges); cysteine pairing not given here", "notes": "on phage"}, "B35": {"name": "RB-B7 (peptide)", "peptide": "LRLMDNICLPRWGCLWDDGF", "modifications": "not fully specified (bridges); cysteine pairing not given here", "notes": "on phage"}, "B36": {"name": "RB-B5 (peptide)", "peptide": "QWHMEDICLPQWGCLWGDVL", "notes": "on phage"}, "B37": {"name": "RB-B6 (peptide)", "peptide": "QWQMENVCLPKWGCLWEELD", "modifications": "not fully specified (bridges); cysteine pairing not given here; also: phage-displayed", "notes": "on phage"}, "B38": {"name": "RB-B4 (peptide)", "peptide": "LWAMEDICLPKWGCLWEDDF", "notes": "on phage"}, "B39": {"name": "RB-B11 (peptide)", "peptide": "QWQVMDICLPRWGCLWADEY", "modifications": "not fully specified (bridges); cysteine pairing not given here; also: phage-displayed", "notes": "on phage"}}, "note": "Positions of bridges follow the written chain, without caps; N, C: chain ends. No end group written: not given here."}
{"molecular_target": "T1, rat serum albumin (rat, UniProt P02770 25-608)", "T1 construct": "also called Rat SA; RSA", "T1 sequence (P02770 25-608 limits assumed)": "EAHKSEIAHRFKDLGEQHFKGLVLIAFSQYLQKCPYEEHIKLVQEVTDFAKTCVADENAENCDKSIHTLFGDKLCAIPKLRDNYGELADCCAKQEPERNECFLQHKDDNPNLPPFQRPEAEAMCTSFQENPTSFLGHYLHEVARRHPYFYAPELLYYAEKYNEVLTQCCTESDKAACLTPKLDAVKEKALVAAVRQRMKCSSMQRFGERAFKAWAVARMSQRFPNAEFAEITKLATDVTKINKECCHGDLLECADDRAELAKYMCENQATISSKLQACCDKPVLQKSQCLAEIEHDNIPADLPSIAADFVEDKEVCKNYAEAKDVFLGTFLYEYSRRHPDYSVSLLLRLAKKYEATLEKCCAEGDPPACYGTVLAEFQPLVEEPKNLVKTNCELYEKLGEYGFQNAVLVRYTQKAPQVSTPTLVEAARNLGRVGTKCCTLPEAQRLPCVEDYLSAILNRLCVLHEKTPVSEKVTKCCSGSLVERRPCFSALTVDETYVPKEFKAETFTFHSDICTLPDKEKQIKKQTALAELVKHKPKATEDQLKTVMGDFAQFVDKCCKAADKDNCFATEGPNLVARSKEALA", "test": "phage binding"}
{"binder": "B1", "binding result": "binds"}
{"binder": "B2", "binding result": "binds"}
{"binder": "B3", "binding result": "binds"}
{"binder": "B4", "binding result": "binds"}
{"binder": "B5", "binding result": "binds"}
{"molecular_target": "T2, human serum albumin (human, UniProt P02768 25-609)", "T2 construct": "also called Human SA; HuSA", "test": "phage binding"}
{"binder": "B5", "binding result": "binds"}
{"binder": "B6", "binding result": "binds"}
{"binder": "B7", "binding result": "binds"}
{"molecular_target": "T3, rabbit serum albumin (rabbit, UniProt P49065 25-608)", "T3 construct": "also called Rabbit SA; BuSA", "T3 sequence (P49065 25-608 limits assumed)": "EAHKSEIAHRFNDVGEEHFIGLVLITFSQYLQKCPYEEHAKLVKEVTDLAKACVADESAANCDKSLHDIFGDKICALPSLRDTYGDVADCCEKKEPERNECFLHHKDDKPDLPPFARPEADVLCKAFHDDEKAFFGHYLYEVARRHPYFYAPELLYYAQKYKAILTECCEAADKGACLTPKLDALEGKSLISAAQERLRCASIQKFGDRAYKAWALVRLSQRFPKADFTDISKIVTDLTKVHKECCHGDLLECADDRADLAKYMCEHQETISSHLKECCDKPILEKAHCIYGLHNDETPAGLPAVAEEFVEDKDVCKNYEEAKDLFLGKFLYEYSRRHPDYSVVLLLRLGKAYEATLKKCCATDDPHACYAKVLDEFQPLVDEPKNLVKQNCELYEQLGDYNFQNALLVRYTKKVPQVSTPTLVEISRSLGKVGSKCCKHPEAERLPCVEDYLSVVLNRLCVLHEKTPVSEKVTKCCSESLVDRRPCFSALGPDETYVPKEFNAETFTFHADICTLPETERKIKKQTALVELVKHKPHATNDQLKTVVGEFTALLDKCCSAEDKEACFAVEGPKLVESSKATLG", "test": "phage binding"}
{"binder": "B8", "binding result": "binds"}
{"binder": "B9", "binding result": "binds"}
{"binder": "B10", "binding result": "binds"}
{"binder": "B11", "binding result": "binds"}
{"molecular_target": "T3, rabbit serum albumin", "test": "peptide competition; head prints RSA, read as rabbit", "units": {"IC50": "nM"}}
{"binder": "B12", "IC50": 8540}
{"molecular_target": "T1, rat serum albumin", "test": "peptide competition for albumin", "units": {"IC50": "nM"}}
{"binder": "B12", "IC50": 787}
{"binder": "B13", "IC50": 161}
{"binder": "B14", "IC50": 68}
{"binder": "B15", "IC50": 35}
{"binder": "B16", "IC50": 258}
{"binder": "B17", "IC50": 77}
{"binder": "B18", "IC50": 232}
{"binder": "B19", "IC50": 205}
{"molecular_target": "T3, rabbit serum albumin", "test": "peptide competition for albumin", "units": {"IC50": "nM"}}
{"binder": "B12", "IC50": 8540}
{"binder": "B13", "IC50": 804}
{"binder": "B14", "IC50": 128}
{"binder": "B15", "IC50": 30}
{"binder": "B16", "IC50": 1690}
{"binder": "B17", "IC50": 86}
{"binder": "B18", "IC50": 1210}
{"binder": "B19", "IC50": 1760}
{"molecular_target": "T4, mouse serum albumin (mouse, UniProt P07724 25-608)", "T4 construct": "also called Mouse SA; MuSA", "T4 sequence (P07724 25-608 limits assumed)": "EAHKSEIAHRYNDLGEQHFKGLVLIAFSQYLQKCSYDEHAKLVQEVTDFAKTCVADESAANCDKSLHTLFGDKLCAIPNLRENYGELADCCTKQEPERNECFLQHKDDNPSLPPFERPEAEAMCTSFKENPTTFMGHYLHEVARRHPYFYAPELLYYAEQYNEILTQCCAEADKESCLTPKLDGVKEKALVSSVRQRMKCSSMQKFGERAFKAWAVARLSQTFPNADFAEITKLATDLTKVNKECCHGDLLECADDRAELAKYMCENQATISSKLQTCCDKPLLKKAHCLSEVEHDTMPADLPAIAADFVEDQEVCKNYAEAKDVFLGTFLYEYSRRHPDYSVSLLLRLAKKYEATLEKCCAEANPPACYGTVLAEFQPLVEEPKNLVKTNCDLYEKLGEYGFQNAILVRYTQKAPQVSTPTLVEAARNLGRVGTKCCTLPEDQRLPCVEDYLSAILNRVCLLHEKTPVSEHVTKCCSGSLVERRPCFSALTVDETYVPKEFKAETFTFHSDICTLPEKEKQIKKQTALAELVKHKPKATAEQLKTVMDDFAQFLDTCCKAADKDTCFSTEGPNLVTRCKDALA", "test": "peptide competition for albumin", "units": {"IC50": "nM"}}
{"binder": "B12", "IC50": 40}
{"binder": "B13", "IC50": 6}
{"binder": "B14", "IC50": 8}
{"binder": "B15", "IC50": 6}
{"binder": "B16", "IC50": 6}
{"binder": "B18", "IC50": 17}
{"binder": "B19", "IC50": 13}
{"molecular_target": "T1, rat serum albumin", "test": "phage binding", "remark": "another data set of the same source"}
{"binder": "B20", "binding result": "binds"}
{"binder": "B21", "binding result": "binds"}
{"binder": "B22", "binding result": "binds"}
{"binder": "B23", "binding result": "binds"}
{"binder": "B24", "binding result": "binds"}
{"binder": "B25", "binding result": "binds"}
{"binder": "B26", "binding result": "binds"}
{"binder": "B27", "binding result": "binds"}
{"binder": "B28", "binding result": "binds"}
{"molecular_target": "T2, human serum albumin", "test": "phage binding", "remark": "another data set of the same source"}
{"binder": "B20", "binding result": "binds"}
{"binder": "B21", "binding result": "binds"}
{"binder": "B27", "binding result": "binds"}
{"binder": "B28", "binding result": "binds"}
{"molecular_target": "T3, rabbit serum albumin", "test": "phage binding", "remark": "another data set of the same source"}
{"binder": "B20", "binding result": "binds"}
{"binder": "B21", "binding result": "binds"}
{"binder": "B22", "binding result": "binds"}
{"binder": "B23", "binding result": "binds"}
{"binder": "B24", "binding result": "binds"}
{"binder": "B25", "binding result": "binds"}
{"binder": "B26", "binding result": "binds"}
{"binder": "B27", "binding result": "binds"}
{"binder": "B28", "binding result": "binds"}
{"binder": "B29", "binding result": "binds"}
{"binder": "B30", "binding result": "binds"}
{"binder": "B31", "binding result": "binds"}
{"molecular_target": "T1, rat serum albumin", "test": "phage binding", "remark": "another data set of the same source"}
{"binder": "B32", "binding result": "binds"}
{"binder": "B33", "binding result": "binds"}
{"binder": "B34", "binding result": "binds"}
{"binder": "B35", "binding result": "binds"}
{"binder": "B36", "binding result": "binds"}
{"binder": "B37", "binding result": "binds"}
{"binder": "B38", "binding result": "binds"}
{"binder": "B39", "binding result": "binds"}
{"molecular_target": "T2, human serum albumin", "test": "phage binding", "remark": "another data set of the same source"}
{"binder": "B32", "binding result": "binds"}
{"binder": "B33", "binding result": "binds"}
{"binder": "B34", "binding result": "binds"}
{"binder": "B35", "binding result": "binds"}
{"binder": "B36", "binding result": "binds"}
{"binder": "B37", "binding result": "binds"}
{"binder": "B38", "binding result": "binds"}
{"binder": "B39", "binding result": "binds"}
{"molecular_target": "T3, rabbit serum albumin", "test": "phage binding", "remark": "another data set of the same source"}
{"binder": "B32", "binding result": "binds"}
{"binder": "B33", "binding result": "binds"}
{"binder": "B34", "binding result": "binds"}
{"binder": "B35", "binding result": "binds"}
{"binder": "B36", "binding result": "binds"}
{"binder": "B37", "binding result": "binds"}
{"binder": "B38", "binding result": "binds"}
{"binder": "B39", "binding result": "binds"}
